The results in this text go back to paper doi:10.1101/495473 (bioRxiv, 2018).

The series concerns the molecule itself. The experiment in a line: SEC.

B1: Plasmodium berghei phosphoglycolate phosphatase (PbPGP) (enzyme, P. berghei, UniProt A0A509AU59 1-322, looked up)
chain: MSLIVSEASQNNYFKDSENSYNSFMKEWKIEKRVNVKDLYQNFEVFFFDCDGVLWRGDTVINGAIEVINKLISDNKKVYFITNNSTKSRDTLLGKFHKLGFTCVKKEHIICTSYAIAKYFHSKEEYKSRKKKIYVIGEKGICDELDALNLVWLGSYKDNDKKVIIQDEGEIQIDNNIGAVVVAIDFNINYYKIQYAQLCINGLDAEFIVSNKDPLANFTSNQQWAGTGSIVASIEQVSFKKPKVLGKPNLFMIESVLKSLNIDLSKVVMIGDRLDTDIFFAQNCKIKSILVSTGVTDANVFLNHNNLNIKPDYFMKSILEFL
A word on the stoichiometry N: it is a count of units in the complex or per binding partner. Consider B1, for which the “stoichiometry N” value amounted to 2.
